This is an account of results in a protein production outcome set (Wang et al. 2014).
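Further: failed if final PepcDB status was selected cloned or expressed and not failed if soluble or beyond.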

The nature of this data set: label from the status in PepcDB records.
In the case of “MATQYGALSYSSRTQSPARVMTRVMVEARRVLLGALATAAVVAFMSAVGWVALLALTVTIPFATIVVALAMAIRHFRQDRRALA”, the protein production entry is recorded as “failed”.
Under “MATSRLQLEGDDSVHLHITHANLKSFSADARFSPQMSVEAVKEKLWKKCGTSVNSMALELYDDSGSKVAVLSDDSRPLGFFSPFDGFRLHIIDLDPSSVTTGGWLEDTSLVEKYNISEEDYAKRTDSFRKFKEKRVSQNPVAAEAKTKENYMEDLCANIKVGDRCQVEPGEKRGMVKYVGRAESLGPGYWVGIQYDEPLGKHDGMVKGTRFFECPRLQGGMVRPDKVKVGDYPERDPFEEDEI” stands “failed”; under “MATSSTQLLLSSSSLFHSQITKKPFLLPATKIGVWRPKKSLSLSCRPSASVSAASSAVDVNESVTSEKPTKTLPFRIGHGFDLHRLEPGYPLIIGGIVIPHDRGCEAHSDGDVLLHCVVDAILGALGLPDIGQIFPDSDPKWKGAASSVFIKEAVRFRRLP”, “failed”.
As to “MATTLPRITARVDVDTQDLLAKAAALAGMSSINSFVLNAAIEKAKQVIEREQALKLSQADAVLLMEALDNPAVVNAKLKLASERYESKTQ”, the protein production result is “failed”.
Under “MAVEQPTAHAGGQSPAHAGEQSRIHNIGYRNYDGPRLGRAYARRSLYSQSLRGAYGLGRSVKSKVLPMLLFVVMCVPALIMVAVAVATKAKDLPVDYTRYAIIMQAVIGLYVASQAPQSVSRDLRFKTVPLYFSRPIETADYVRAKYAALASAMFILTAAPLLVLYVGALLAKLDFTDQTKGFAQGLVSVALLSLLFAGIGLVISAVTPRRGFGIAAVIAVLTISYGAVSTVQAIADAQNSTSAVPWLGLFSPVTLIDGMQTAFLGASSSFPGEAGPSSAQGVVFLIVVLGLIAGCYGLLMRRYRKVGL” stands “failed”; under “MAVGDQTEQNYLPKKKKSETEDDKRRKKIVPGSLLKAVVRPGGGDSSPVDGDQVIYHCTVRTLDGVVVESTRSESGGRGVPIRDVLGNSKMILGLLEGIPTMHKGEIAMFKMKPEMHYAEIDCPVSAPENFPKDDELHFEIELLDFSKAKIASDDLGVIKKILNEGEGWESPREPYEVKARISAKSGDGHVIFSHTEEPYFFTFGKSEVPKGLEIGIGTMARKEKAVIYVRKQYLTESPLLHIDQDLEEVHFEVELVHFIQVRDMLGDGRLIKRRIRDGRGEFPMDCPLQDSRLSVHYKGMLLNEEKTVFYDSKIDNNDQPLEFSSGEGLVPEGFEMCTRLMLPGEIALVTCPPDYAYDKFPRPPGVSEGAHVQWEIELLGFETPRDWTGLNFQSIMDEADKIRSTGNRLFKEGKFELAKAKYEKVLREFNHVNPQDEDEGKIFGDTRNMLHLNVAACLLKMGEWRKSIETCNKVLEAKPGHVKGLYRRGMAYIAGGEYDDARNDFNMMIKVDKSSEADATAALLKLKQKEQEAESKARKQFKGLFDKRPGEITEVGSEIREESKTIEEVDETKDNDDDETLEEEGATTVSTERKRKWSEKAWPFLKNVMLQIGIQLGVVLIGILIFQFVSAKFT”, “failed”.
The value for “MAVLLSSFSPLGINIDMNKNLGVSYSSFPQIHLFKGSTPLRVRTFVVSSRKNSGTGLASEDKKLLLERYGYDANDDFGSQSKKARRKEEKMSGRNSQQVEEVVVVQPRTTHRLLQVLAGTAKRKKLLSLKGMDVRPMMEVVKGAAFGILQAAGGCPTSLRPGRWLDLYSGTGSVGIEAISRGCSEAHFVEMDPWVVSNVLQPNLEHTGFVDASVIHTARVENFLERADKLVGKDGVFDYISVTPPYMEVDYEVLMDQIAKSPAIGENTFILVEYPSRTTMLDSCGCLEKMTDRRFGRTHLAIYGPKWAQKPRKS” was “failed”.
Under “MAVLSMLGIIDAKPKVGYFYLGQYHASIGTSHFEKMTVSEIMGIPLTVHQKDSVYDVIVHIFMEDAGCAFILDDDDFLCGVVSRKDLLKISIGGGDLSKMPIGMVMTRMPHVTTVLENESLFAAADKLVSRKVDSLPVVRHDKQYPEKFKVIGKLSKTILASLFLEIRDY” stands “failed”.
Consider “MAVPSFFTLMNLLCGFMALTQVADAAFVLACWLIVLAGFFDLLDGVMARLTGADSPFGVQLDSLSDIVSFGVAPSFLLYGYVLDTFNPLGMIVAALPALCGAVRLARYNMTADESDKEGFEGLPIPGQAIAVVALILAAENSAWDGRFALDSLRVVLPVVIVLSGLMVSSIRFDAIPMPSLEAVRTHPSKIAAYGLAGLLIVGLQERGLLIVLTAYLLHGVGRALYKLMRALVAPVPDERLGS”, for which the protein production result was “failed”.
The value for “MAVRFFHTSDWHLGQFFYNHSRHYEHEQFLAWLLKQIKAKQPHALLIAGDIFDVINPSSQAQKQLYQFLADAHALAPHMQTLMIAGNHDSGYRIEQVEPLLEKYNARTVGVIRWNEDKTLNLERLILPVYDENKNVVAWCIALPFLRSAEITGFNEHTNNSQSAIAYLHEQLISEAKRRKTDDQAIILMSHAHMQGGETSDSERPIIIGNEEALSTALFDDAIDYVALGHLHKPQKVQHPHIRYSGSPIPLSFSEINYKHQVVDVNIDPTQSTDKFQFEAIEIPRSIKLHKIRGELNEVIQQLKSLAQGEIESIDLREYIDIEYHTLTPPLPNLRQQFEDALPPKRYRLVRISRQYLSQDNNAAQASKINLEPPTPEKLFEQIWDKKGYHADDDVKKDFMSLVAQAQQQLEDQHKY” was “failed”.
For “MAVRIVDDLQQLSLLLMFLSTFIFYRYLKKVKRERKLTGFEWTMYFVTQFATLIWAITYFIKHLAES”, the protein production entry was “failed”.
Under “MAVRVCCHAPPGVSNHLFTFCAGNLTTGFSGGSVTSQKGGAAGLPTCSRRCPRGCLPGSDPLPRHPRRYAPPVTPPVTPPTTPAPRSRARMLELVFPKDTNYHGTAFGGWVLALMDKAASVAAVRHAGGNVVTARMDGVDFHVPIRVGDAVALDARVIRVGRSSMTIRVDVYRENMASGEQQLATGGLFTFVALGEDGKPRPVPPLPEGSTDSEQPDYEARP” stands “failed”; under “MAVSKMEKMTIIAAAEKEAAILQAIQGLQIVEVKRIFHSPEEEQALKSQYSFLQAEQSTEQLRKYETMLQQLQELLLFLTRSSGKGLKIKRKVYTLEELEQTFDEETLQSYLTELKNIQESLKQIQTDRQGLEAEEELLGRWQYLDVLPHKQQLKSSYVVHGSINLANKASFLSALSQWPTVYFEEIYQSMHHSYFTLVYLKEHQQSVTELLNQYSFEPLQYRYDVPPKEAYQQVKERYEILQKEEKALKQQLASYHDFYETFCLAEEVLLAVIQREQARQHLLNASSFFILQTWIPVEEKAEILTAIEEKVPKDEIALTFENPTKAEIETDIPVKLANNKLVQPFEMLTEMYSLPKYEEVDPTPAMMPFYLVFFGMMVADIGYGLLMLLLSIIALKAFVLPRGMKRFADFFLILSFPTIIWGFIYGSFFGAALPPIMFGIKSPFPILSTTEDVNTILILSVIFGFIQLVVGLMINGIQLSKQKRYLDSINESYAWLGILFGLALLVVGKLVVKNEGLFTAGAILASLSAIAIIVIPMIQSKAKLKGLAKGLYGLYGVTGYVGDLVSYTRLMALGIAGGSIASAFNMLVEFMPPVARFSVGILLLIVLHALNIFLSLLGAYVHGARLQYVEFFGKFYTGGGRAFNPLKTKEKYVNVEKK”, “failed”; under “MAVSSGTFSTFLCIKTTSFRNPSTPLSSLRFASHPAAKLRLVRAVTSATESSEPTATNKRVPRGIMKPRPVSPEMQDIVELPEIARTQALKRIWAYIKEHDLQDPQNKREILCDEKLKKIFEGRDRVGFLEIAKLIGPHFL”, “failed”.
The value for “MAVVASAPGKVLMTGGYLVLEKPNAGLVLSTNARFYAIVKPINEEVKPESWAWKWTDVKLTSPQLSRESMYKLSLNHLTLQSVSASDSRNPFVEHAIQYAIAAAHLATEKDKESLHKLLLQGLDITILGSNDFYSYRNQIESAGLPLTPESLGTLAPFASITFNAAESNGANSKPEVAKTGLGSSAAMTTAVVAALLHYLGVVDLSDPCKEGKFGCSDLDVIHMIAQTSHCLAQGKVGSGFDVSCAVYGSQRYVRFSPEVLSFAQVAVTGLPLNEVIGTILKGKWDNKRTEFSLPPLMNLFLGEPGSGGSSTPSMVGAVKKWQMSDPEKARENWQNLSDANLELETKLNDLSKLAKDHWDVYLRVIKSCSVLTSEKWVLHATEPINEAIIKELLEAREAMLRIRILMRQMGEAASVPIEPESQTQLLDSTMSAEGVLLAGVPGAGGFDAIFAITLGDSGTKLTQAWSSHNVLALLVREDPHGVCLESGDPRTTCITSGVSSIHLE” was “failed”; that for “MAWNKQVALVFLPSDSGVDGARSLYGDTEPPGLRRWLDSGVRNLIKRTQFAIPPLALMILASIEVPGVEQTLCDLRFEEFPFDRQWDLVGISVQTGMASKAFELADRLRSRGVKVVLGGPHVTMFPDSCRAHADCLVHGEADDLWRDVLADLVTDSLKAEYRPDAPPDLQLHRPVSRASLKKNRYFTTNLVQTGRGCPYQCDFCNVHVLNGRVLRQRKIDHIVDEVRRFSEEDKRIFFFVDDSINGDPLFARELFKHLIPLNITWFGQATTALGQQPELLDTFARSGCRALLVGIESIEPSSRIAHKKTQNRTDELAGNIRAIRKSGISLYGSFIYGLDGDTLQTPQAILDFIADTRLDVPGINTLRPIPGTKVFDRLREEGRLLFDPEDITSFRYTFGQEMLYRPKNIPLPEFIESYSELTRKVFNIGNAIRRGLEAPGINAAVLFFNLFYTHLYRLSRNDLRKQLETLGSA” was “failed”; that for “MAYDDIVSSMVLELRRGTLVMLVLSQLREPAYGYALVKSLADHGIPIEANTLYPLMRRLESQGLLASEWDNGGSKPRKYYRTTDEGLRVLREVEAQWHVLCDGVGKLLETNGEDREHAER” was “not failed”.
The value for “MAYDGLFTKKMVESLQFLTTGRVHKINQPDNDTILMVVRQNRQNHQLLLSIHPNFSRLQLTTKKYDNPFNPPMFARVFRKHLEGGIIESIKQIGNDRRIEIDIKSKDEIGDTIYRTVILEIMGKHSNLILVDENRKIIEGFKHLTPNTNHYRTVMPGFNYEAPPTQHKINPYDITGAEVLKYIDFNAGNIAKQLLNQFEGFSPLITNEIVSRRQFMTSSTLPEAFDEVMAETKLPPTPIFHKNHETGKEDFYFIKLNQFNDDTVTYDSLNDLLDRFYDARGERERVKQ” was “not failed”.
For “MAYDIERYLDIRGAGDPTYGPTGELAFTLGTTGTAQVWALGAPGAWPTQLTFHDERVQWASFSPTREELAYGMDTGGDEFTQLHRVSGDGSEDVQLTAFPDAKHDWGGWSHDGDRIAYTANRRDASRFDVYVQGRDEAGANADCVRVGDTFDLPSVVGWSPSDDRLLVVDTHSNFDQDVAVLDVDTGEITRATAGLDADTRFSWVAWAPDGGGVYVTTDHDADTRYLGLLDPETGAISRVADGGDWPIEAVVTAHDAGRLAYVRNRDGYSELTIADAAGTTLTEQPTPELPDGVIRGLSWGPDGDTLAVVVSAATENPNVFVVDVATGAATQWTNAATAGIPKSTFREPELVRYETFDGREIPALFTRPDGDGPHPVIVDFHGGPEGQRRPSFLSLRQYFVDNGYAVFEPNVRGSSGYGATYMNLDNVRNRMDAVADGKAGVEWLTARTDIDADRVVAYGGSYGGFMVLASLTEYPELWAAGVDIVGIANFVTFLENTGDWRREHRESEYGSLDADREFLESISPTNNADRIRAPLLVLHGANDPRVPVGEAERIVEQASAHVPVEKHVFDDEGHGFSKRANKQAAYRAVVDFLDDHALEHHHHHH”, the protein production entry is reported as “failed”.
